Measured values: patent publication US20240026407A1, “MODIFICATION OF SAPONINS” (GLAXOSMITHKLINE BIOLOGICALS SA, priority 2020, published 2024)

B1: 247 (protein, listed as Arthrobotrys oligospora)
chain: MDATTLKEIEETLAQLTLEEKISLLAGKDFWRTVPLPEKQIPSIKVSDGPSGARGDTFSGGQKAAFFPSGILMGATFNPELAYETGELLSEEVRAKSASVLLAPTACCHRSPLGGRNFESYSEDPLLSGKMASGYIRGVQSRGIAATMKHFVANEQETWRLYVDETIDETTLREIYLKPFEIAMREGQPWAIMTAYNIINGVHCDSHPLTLKQVLRGEWNYEGLVMSDWFGCNSMVESLLAGLDLEMPGPARKRPIKEFVEAAEKDESVRKAIDDSARRILTLIAKVGKWKDMTPEAPEYSRNDPETGKLIRRAGGEGTVLLKNEGKTLPLQPGSLKKVAFIGPNAKATVAGGGGSANLEPNYLTQPYETFVTAIKEINGDIEVPWVQGCIIDRWVPNIDVEGGFCRVGGPDSEAGLFLEWFRGYEATGEPVATTVFKTSNAFLWDSRPTSISPSEEFSVRFSGQISVPEDGKYNISLSTITASKLYLNGELLIDNWDFKERGNLMMNVGSEEVVKTIELKKGEWYPILVHNSSIWPKDSPRDPPMEEIGALGIRLGVAPVYDNAVLIAEAADAVKDADAVVIVVGLNNEWESESYDRSDTKLPNNQDDLIEEIAKVNQNVIVVNQSGAPVDMPWAENSNVKAIVQAWYAGQEAGHVIADVLLGKQNPSGKLPLTFPIKVQDNPSYLYFPGRDQKVEYTEKLMVGYRYYDTENVQTRFPFGYGLSYSTFSIGEPSLSTAELTEGQTFTANVDVSNTSNVAGAEVVQLYVKRPASTSSIKRPVKELKGFKKVHLGTGETATANITVDDKSLGIWSTEAGKWVVEAGDYEVLIGTSSVQDELKPAGKITVKAAWSWI
B2: 207 (protein, listed as Bifidobacterium dentium)
chain: MSESTYPEVNDLTLEEKASLTSGGDAWHLQGVEAKGIPGYMITDGPHGLRKSLASSTGETDLNDSVPATCFPPAAGLSSSWNPELIHQVGEAMAEECIQEKVAVILGPGVNIKRNPLGGRCFEYWSEDPYLAGHEAIGIVAGVQSKGIGTSLKHFAANNQETDRLRVSANISQRALREIYFPAFEHIVKEAQPWTIMCSYNRINGVHSAQNHWLLTDVLRDEWGFEGIVMSDWGADHDRVASLNAGLNLEMPPSYTDDQIVYAARDGRIQPEQLDRMAQGMIDLVNKTRAAMSVEGYRFDVDAHDEVAHQAAVESMVLLKNDDAILPVASDAKVAVIGEFARTPRYQGGGSSHITPTKMTSFLDTLAARGVDAKFAPGFTLDLEPADAAMAADAVEVAKGADVVLMFLGLPEAAESEGFDRETLDIPAKQVELLEAVAAENKNIVVVLSNGSVVSVAPWADNAKGILESWLLGQAGGPALADVIFGNVSPSGKLAQTVPMDINDDPSMINWPGEEGHVDYGEGVFVGYRYYDTYDKAVDYPFGYGLSYATFEVSDVKVAKTGANTASVSAVVKNTSDVDAAETVQVYVAPGKSAVARPIHELKGFRKVFLKAGESAEVSFDLDERAFAYWSEKFDDWHVESGEYAIEVGTSSRDIAGTGVVELDGDGKAEPLTEWSTFGEWSDDPVGSKIVASVYAEGEAGNLPKMPDNDMMRMFLRSMPINSMPMLMSEGGKKITAFMLDEYAKVTE
B3: 250 (protein, listed as Modestobacter marinus)
chain: MTATTPSDPTALPLEQKVRLLSGQDFWSTPAVAEAGLSSVVLTDGPHGVRRQQGEFDQIGLLESVPATCFPPAVAVGSSWDPEVAERIGAAVGVEARAIGVPVVLGPGVNIKRSPLCGRNFEYYSEDPLLAGVLGAAHVRGQQGEGVGASVKHFAANNQETQRMQVSADVDERTLREVYLPAFERVVTESRPATVMCAYNKVNGVYASQHRWLLTEVLREEWGFRGAVVSDWGAVDDRVAALEAGLDLQMPGDSGAGNALVVEAVRAGVLDEAVVDRSVRRVAALAGLVAEPTAGFDVEAHHALARELAAGCAVLLKNDGGTLPLTAGTRITVVGEFARTPRFQGGGSSHVNATRVDDALTALQGAVEVTFAPGFTLDGSGDAAALREEAVAAARGAEVTVVFAGLAEADESEGFDRTTLDLPAGQVDLIRAVAAVSLRTVVVLSSGSVVSLEGWHDDVDAVLAGFLLGQAGGGALADLLTGAVDPSGRLAETIPLRLQDTPSYLTFPGEQGHARYGEGVMVGYRHYETAEQPVRYPFGHGLSYTSFATTDLQVRTRGADGATATVTVTNTGERAGRHVVQVYVATAAGPVRRPARELRAFTKVSLAAGESATVAFELDRRAFAYWDVREHDWVVAPGEYSVQIGASAADVLDQRTVTLAGDDLVPELTLQSSVAEWFAHPVAGPQLLAGFVAAMPDGAAEMHEGMLQMIGSMPMRRFAADFGSAVPAAELDRLMAAARAAR
B4: 208 (protein, listed as Anaerolinea thermophila)
chain: MNVHNQDTIEQKISELLSQMTLSEKVSLLSGKDAWRTMPIPRLGIPSITMTDGPHGVRSSYPEAGRKAGPTTCFPTGVSMAATWNTALIEKVGMALAEETRAMDCDILLGPCVNIVRHPLAGRNFESYSEDPYLNGKMGVAWVKGLQSKKVGASLKHFAANNQEFERHRGSSELDERTLREIYLPHFEMVVKEAKPFTVMCAYNRINGVYASQNRHLLREILKEEWGFDGVVVSDWGANHTIFESVENGLDLEMPGPARYYGKLLEDAVHNWQIDEKVIDDAVRRILRILFRAGKFDDPATLPPGSVNTPEHQALALEVAEEAITLLKNEADLLPLDIEKIRTLAVIGPNAAEDRIGGGGSSYVDPPYRVSPLEALRARFGDKIQIEYEKGCDNYHQPPVLGADWLGVNGLKVDFFDNPALQGQPAGTISIPKAEMWMWANSLPASKITSPRFSLRASGSFTPLESGNFTFFLVNTSTCRVFINGNKVFENTSKPKEHRAESEVQFQTTLEEGKSYDLVIEYLKDNDEEFAFWKLACMRVFGPGEDNRIQKAAELAAKSDVALVFIGMPEGFESEGYDRPDMRLPGPQDELVRAVLKANPRTVVILNAGSPVEMPWAEDVPAILEAYYPGQEGGNAVAKILFGEINPSGKLTVTFPRRLEDTPAYINYPGDRKVYYGEGIFVGYRYYEKKKVSPLFPFGHGLSYTTFEYENLTLPSEVNIGESVKVQVTVKNTGKRAGKEVVQLYVGDPESSLVRPPKELKGFAKVELQPGESKTVSFELDERAFAFYDPYQSRWVVEPGEFQILVGSSSQDIRASAVLRMA
B5: 169 (protein, listed as Bifiguratus adelaidae)
chain: MASSRVTELLANLTLEEKVYLLSGSDNWRTFPVPRLGIPAVKVTDGPIGARGDSFNTGQNAACFPAPIAMASTWDTDLLLKVGSALGEEAKSKAAQVLLAPTINMHRSPLNGRNFECYSEDPFLTGKMATAFVSGLQSQGVAAAVKHFACNDSEFERDSISSEITERPFREIYLRPFEMVVRDADPWCIMTSYNKINGVFASENPKLLKEILRNEWNWKGMVMSDWFGVKSTVPSVLNGNDLEMPGPPAWRGEKLLAAIKQGELKEEDLNESVQRVLSFVERVGKFEDPEERPETYLAKPEITELIRNVSADSIILVKNEQSLPLNKDALKSVAIIGPNAKTAVTMGGGSSKVQAPHEVTPYEGIAAALGEDVDIRHSVGAYTHKLIPQLDDRLQTPDGELGYIMDVYESKNFGETPTDSKVLNNTRVIIHDAGFKDVDFRSFSAKVRARYTAKHTGPHTFGIASVGLSKLYVDGKLVIDNWTSQVRGDIFFGFGSREEKAQYDMIEGQTYEILIDYMTGHELMAMLRFGLLEPLASDVVEQAVKVAEGTDVAVVVVGLNNEWETEGYDKTELELPGGQNELIEAVANVNKNTIVVVQCGSPVVMPWIDKVSGVIVAWYGGQETGHSIADVLFGKVNPSGRLTQTFPKRLEDNPAFDNYPGENGKVIYGEGLFIGYRYYQRRKVDVFLPFGFGLSYTTFDYGNIKLDNSELDPQAHITVSVDVTNTGSIAGKEVVQVYVHDNHPRLSRPLAELKGFSKVELAPGETRTVQITLDKHAVAFYDDKEAVWVAEAGEFELHIGSSSADIRGKVPFTVTKSLSWTF

Tests used:
Type in all cases: biochemical, Quillaja saponaria
[1] = Experiment 4-1: screening of glucosidases for deglycosylation with purified QS-18 (0.04 mg/ml) at pH 7.5 and room temperature; details: pH 7.5, room temperature, 20 h, clarified E. coli lysate, QS-18 2150 to QS-21 1988 by LCMS/MS
Method in brief: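 Deglycosylation measured by LC-MS/MS as % conversion after 20 h room-temperature incubation of QS-18 phenyl fraction (0.04 mg/ml final) with polymyxin B/lysozyme lysates, pH 7.5 phosphate, of E. coli BL21(DE3) expressing each enzyme; MeCN quench. Positives exceeded negative control by >3 S.D.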

[2] = Experiment 4-3: screening of glucosidases for deglycosylation with QS-18 in crude bark extract (1 in 2000 dilution) at pH 7 and 30 deg C; details: CBE 1 in 2000 dilution, pH 7, 30 degC, 1 h; % conversion of QS-18 by LCMS/MS
[3] = Experiment 4-4: screening of glucosidases for deglycosylation of QS-18 in crude bark extract (1 in 20 dilution) to QS-21; details: CBE 1 in 20 dilution, pH 6, 25 degC, 18 hours; % conversion of Middle Peak by UV HPLC
Method in brief: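 Clarified glucosidase lysates were incubated with pH 6 crude bark extract (1 in 20) in potassium phosphate buffer pH 6 for 18 h at 25 °C with shaking, then quenched with MeCN. UV HPLC with MS/MS-supported peak identity; activity is % conversion of the extract's Middle Peak (QS-18 family) toward the QS-21 peak.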

[4] = Experiment 4-2: screening of glucosidases for deglycosylation with purified QS-18 (1 mg/ml) at pH 6 and 30 deg C; details: pH 6, 30 degC, 18 hrs, clarified lysate, LCMS/MS
Method in brief: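 Enzyme activity derived from LC-MS/MS analysis after MeCN quench. Substrate QS-18 (1 mg/ml final) was exposed overnight (18 h, 30 °C, pH 6 phosphate buffer) to clarified lysates containing candidate glucosidases.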

| Molecule | Expt 4-1 % conv [1] | Expt 4-3 % conv [2] | Expt 4-4 % conv [3] | Expt 4-2 % conv [4] |
| --- | --- | --- | --- | --- |
| B1 | 18.0% | 2.7% | <3% | 2.0% |
| B2 | 27.4% | 0.2% | <3% | 4.4% |
| B3 | 88.5% | 2.6% | <3% | 36.0% |
| B4 | 100.0% | 26.0% | <3% | 94.0% |
| B5 | 19.8% | 2.4% | <3% | 2.1% |
